The text below walks through data of the supplement of paper PMC9170038.

This data set relates to MS2 coat protein. The experiment in a line: apparent KD of MS2 coat protein; designed switch direction (-1 OFF switch, 1 ON switch): 1; higher = weaker reporter binding. Put shortly:
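Apparent KD, taken as the median over clusters for each design, was obtained by curve-fitting normalised cluster fluorescence. Designed RNA switches had been transcribed on Illumina chips by stalled E. coli RNA polymerase and titrated with SNAP-549-labelled MS2 coat protein, doubling from 0.7 or 1.5 nM to 3 µM.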

The mark [1] stands for this setting: Eterna round: R95, input ligand: FMN 200 uM.
[2] abbreviates: Eterna round: R95, input ligand: microRNA oligo, concentration not stated.
The mark [3] stands for this setting: Eterna round: R95, input ligand: none.
Setting [4] is: input ligand: microRNA oligo, concentration not stated.

In the case of “AAUAUACAUGAGGAUCACCCAUGUUAGUAAAUGACAGGAUAUGGAAUAAAUAAAUAAUAACCAGAAGGGUCUAAUA [JMF's solution 2] (puzzle: Same State 1)”, the “apparent KD of MS2 coat protein” value came out at 0.016 µM under setting [1], 0.0249 µM under setting [2] and 0.0285 µM under setting [3].

In the case of “AAUUAUUAACAUGAGGAUCACCCAUGUAUUAUUAUUAACAAGCUUUGCUCUACAUGGGUGCUCGUCUUAUUUAUUAA [AthenaIerokomos] (puzzle: Sensor for hsa-mir-208a version 2)”, the “apparent KD of MS2 coat protein” value reads like this: under setting [1], 0.0137 µM; under setting [2], 0.0686 µM; under setting [3], 0.0325 µM.

As to “AAUUCAAACAGAGGAUAUUGUUUAUCUCUAUUGCAAGAAGGCUGAUCUUACUACUUACUUAUGAAACAUGAGGAUCACCCAUGU [JR_SSNG1_Sub019] (Eterna round: R96, puzzle: Same State NG 1)”, the “apparent KD of MS2 coat protein” value under setting [4] worked out at 0.0293 µM.

For the sequence “AAUUUAAUACAUGAGGAUCACCCAUGUAAAUUAAUUAAGAUCUAGGAUAUCAGCUCGAAUAGAGCUGAGAAGGAGAUCACAUGU [SSNG3/19-B1] (Eterna round: R96, puzzle: Same State NG 3)”, the “apparent KD of MS2 coat protein” value under setting [4] is 0.0138 µM.

As to “ACAAGCUUUUCUGCAUUGAAAGGUUGAUAACAUGAGGAUCACCCAUGUUUAUAUGAAAAUAAUGCUCCUCGUCUUAU [JR_SHM208A_Sub094] (puzzle: Sensor for hsa-mir-208a)”, the “apparent KD of MS2 coat protein” value is, setting by setting: under setting [1], 0.0554 µM; under setting [2], 0.0114 µM; under setting [3], 0.0469 µM.

On to “ACAAGCUUUUCUGUAUUGAAAGGUGGGAUACAUGAGGAUCACCCAUGUUUUUUUGUUUAUUUUUUUCCUCGUCUUAU [JR_SHM208A_Sub088] (Eterna round: R96, puzzle: Sensor for hsa-mir-208a)”, for which the “apparent KD of MS2 coat protein” value came to 0.046 µM (input ligand: FMN 200 uM), 0.0365 µM under setting [4] and 0.0372 µM (input ligand: none).

For “ACAAGCUUUUCUGUAUUGAAAGGUGGGAUACAUGAGGAUCACCCAUGUUUUUUUGUUUAUUUUUUUCCUCGUCUUAU [JR_SHM208A_Sub088] (puzzle: Sensor for hsa-mir-208a)”, the “apparent KD of MS2 coat protein” value runs as follows: under setting [1], 0.0343 µM; under setting [2], 0.0377 µM; under setting [3], 0.0343 µM.

Turning to “ACAAGCUUUUUUGUAGUGAAAGGUGGGAUACAUGAGGAUCACCCAUGUAUUGUUGUUAAUAUUGGACCUCGUCUUAU [JR_SHM208A_Sub084] (puzzle: Sensor for hsa-mir-208a)”, the “apparent KD of MS2 coat protein” value under setting [1] is 0.0221 µM, the “apparent KD of MS2 coat protein” value under setting [2] came to 0.0142 µM and the “apparent KD of MS2 coat protein” value under setting [3] is 0.0225 µM.

For the sequence “ACAGCCGGCACUGAGGAUAUUCAUAUUAAAACAUGAGGAUCACCCAUGUAGGCCAGAAGGCCUUGGGAGAAGGCAGGUCGGCUGA [Mat - Same State 2 - Mod of UCT - D64] (puzzle: Same State 2)”, the “apparent KD of MS2 coat protein” value is, setting by setting: under setting [1], 0.0188 µM; under setting [2], 0.229 µM; under setting [3], 0.391 µM.

For “ACAUAGGUUUCAGGAUAUGGGUAAAUUCCCAACAUGAGGAUCACCCAUGUCCGUUGGGAUAACAUCCAGAAGGGAAGCCACAUA [MOD2 Eternabot Solution 1 (Score 87.5)] (Eterna round: R96, puzzle: Same State NG 2)”, the “apparent KD of MS2 coat protein” value is 0.215 µM (input ligand: FMN 200 uM), 0.0881 µM under setting [4] and 0.39 µM (input ligand: none).

For the sequence “ACAUGAAAUUGAGGAUAUUUUGUACCUACAUGUGACAUGAGGAUCACCCAUGUGGUAAGUAUAAGAAAGAAGGCAAAGAUAUGU [Equivalence 7 - Jieux - Same State NG 2] (Eterna round: R96, puzzle: Same State NG 2)”, the “apparent KD of MS2 coat protein” value by setting is: (input ligand: FMN 200 uM) 0.0256 µM; under setting [4], 0.0308 µM; (input ligand: none) 0.0649 µM.

For “ACAUGAGACGGAGGAUAUGUUGUACCUACAUGUGACAUGAGGAUCACCCAUGUGGUAAGUAUGAUACAGAAGGCCGAGAUAUGU [Equivalance 58 - Jieux - Same State NG 2] (Eterna round: R96, puzzle: Same State NG 2)”, the “apparent KD of MS2 coat protein” value (input ligand: FMN 200 uM) amounted to 0.0136 µM, the “apparent KD of MS2 coat protein” value under setting [4] turned out to be 0.0132 µM and the “apparent KD of MS2 coat protein” value (input ligand: none) is 0.0189 µM.

On to “ACAUGAGAGAUAGGAUAUCUUGUACCUACAUGUGACAUGAGGAUCACCCAUGUGGUAAGUAUGAGAGAGAAGGAUCAGAUAUGU [Equivalence 36 - Jieux - Same State NG 2] (Eterna round: R96, puzzle: Same State NG 2)”, for which the “apparent KD of MS2 coat protein” value by setting is: (input ligand: FMN 200 uM) 0.0141 µM; under setting [4], 0.0143 µM; (input ligand: none) 0.0212 µM.

With “ACAUGAGAGUGAGGAUAUAUAGUACCUACAUGUGACAUGAGGAUCACCCAUGUGGUAAGUAUGACAUAGAAGGCACAGAUAUGU [Equivalance 100 - Jieux - Same State NG 2] (Eterna round: R96, puzzle: Same State NG 2)”, the “apparent KD of MS2 coat protein” value by setting is: (input ligand: FMN 200 uM) 0.0379 µM; under setting [4], 0.0714 µM; (input ligand: none) 0.0842 µM.

Regarding “ACAUGAGAGUGAGGAUAUGGUGUACCUACAUGUGACAUGAGGAUCACCCAUGUGGUAAGUAUGACUCAGAAGGCACAGAUAUGU [Equivalance 77 - Jieux - Same State NG 2] (Eterna round: R96, puzzle: Same State NG 2)”, the “apparent KD of MS2 coat protein” value runs as follows: (input ligand: FMN 200 uM) 0.0162 µM; under setting [4], 0.0594 µM; (input ligand: none) 0.103 µM.

In the case of “ACAUGAGAGUUAGGAUAUGUUGUACCUACAUGUGACAUGAGGAUCACCCAUGUGGUAAGUAUGAGGCAGAAGGGACAGAUAUGU [Equivalence 46 - Jieux - Same State NG 2] (Eterna round: R96, puzzle: Same State NG 2)”, the “apparent KD of MS2 coat protein” value by setting is: (input ligand: FMN 200 uM) 0.0757 µM; under setting [4], 0.0517 µM; (input ligand: none) 0.137 µM.

As for “ACAUGAGGAUCACCCAUGUAACCAAGAGAGAGAGCACGGACGCAGGAUAUGCGGCGACGAGCGGAGCAGAAGGGCGCCUCAUAU [Alacarus NG 3 Attempt 1] (Eterna round: R96, puzzle: Same State NG 3)”, the “apparent KD of MS2 coat protein” value was determined as 0.0793 µM (input ligand: FMN 200 uM), 0.052 µM under setting [4] and 0.109 µM (input ligand: none).

For “ACAUGAGGAUCACCCAUGUAUGCUCAGGAAACUGUGCAACGUGAGGAUAUGGAUCCUAAUUGGAUCCAGAAGGCAUGAAUUAUU [Fiskers NG3ss - 23] (Eterna round: R96, puzzle: Same State NG 3)”, the “apparent KD of MS2 coat protein” value by setting is: (input ligand: FMN 200 uM) 0.0415 µM; under setting [4], 0.17 µM; (input ligand: none) 0.418 µM.

Regarding “ACCCACGACGGAGGAUAUGGGCACUCGGCGGAAUAAACCGCCAUAACAUGAGGAUCACCCAUGUCCCAGAAGGCCGUCGCAAUC [Esdirece] (Eterna round: R96, puzzle: Same State NG 2)”, the “apparent KD of MS2 coat protein” value runs as follows: (input ligand: FMN 200 uM) 0.109 µM; under setting [4], 0.404 µM; (input ligand: none) 0.712 µM.

“ACCCGCGACGGAGGAUAUGGGCACUCGGCGAAAUAAACCGCCAUAACAUGAGGAUCACCCAUGUCCCAGAAGGCCGCCGCAAAC [Leatve] (Eterna round: R96, puzzle: Same State NG 2)”: the “apparent KD of MS2 coat protein” value reads like this: (input ligand: FMN 200 uM) 0.0923 µM; under setting [4], 0.255 µM; (input ligand: none) 0.505 µM.

On to “ACCCGCGACGGAGGAUAUGGGCACUCGGCGAAAUAAACCGCCAUAACAUGAGGAUCACCCAUGUCCCAGAAGGCCGUCGCAAUC [Anlelaen] (Eterna round: R96, puzzle: Same State NG 2)”, for which the “apparent KD of MS2 coat protein” value was determined as 0.081 µM (input ligand: FMN 200 uM), 0.154 µM under setting [4] and 0.473 µM (input ligand: none).

For the sequence “ACGCAGCUGGGUGAGGAUAUCGGUGGUACUACAUGAGGAUCACCCAUGUCCGAAGCUCGGACCUCCGAGAAGGCGCCCGGCUGCG [Soinraesar Omei Mod 3] (puzzle: Same State 2)”, the “apparent KD of MS2 coat protein” value under setting [2] was 0.184 µM.

As to “ACUAAAACUGCAGGAUAUGUCCGGAACUCCGUUACAGAAGGGCAACGCACUGUUGAGGGCACGACAUGAGGAUCACCCAUGUAG [Eternabot solution 46] (Eterna round: R96, puzzle: Same State NG 1)”, the “apparent KD of MS2 coat protein” value (input ligand: FMN 200 uM) was determined as 0.0209 µM, the “apparent KD of MS2 coat protein” value under setting [4] came out at 0.0225 µM and the “apparent KD of MS2 coat protein” value (input ligand: none) worked out at 0.0268 µM.

Regarding “AGAAAACAUGAGGAUCACCCAUGUAUAGUGAAUACAGGAUAUCAUCGACGGAAUAGUUGAUGAGAAGGGUGAUCGC [Gebiatan] (puzzle: Same State 1)”, the “apparent KD of MS2 coat protein” value under setting [1] turned out to be 0.0132 µM, the “apparent KD of MS2 coat protein” value under setting [2] amounted to 0.0144 µM and the “apparent KD of MS2 coat protein” value under setting [3] came out at 0.0104 µM.

For “AGACACAUGAGGAUCACCCAUGUUACGAGCUUAGCUCGGACACAGGAUAUCCGGUCCUAGAGACCGGAGAAGGGUGGCUGAAAA [Zara MOD2] (Eterna round: R96, puzzle: Same State NG 3)”, the “apparent KD of MS2 coat protein” value (input ligand: FMN 200 uM) stood at 0.728 µM, the “apparent KD of MS2 coat protein” value under setting [4] is 0.212 µM and the “apparent KD of MS2 coat protein” value (input ligand: none) was found to be 0.587 µM.

On to “AGAGGAGGAGCAGGAUAUUCGAAGGAGGACGUGGAAGAAGGGUUCAUGCGAUGACAUGAGGAUCACCCAUGUACCGCGCGUCGA [AK SSNG1-V2-15] (Eterna round: R96, puzzle: Same State NG 1)”, for which the “apparent KD of MS2 coat protein” value was 0.381 µM (input ligand: FMN 200 uM), 0.126 µM under setting [4] and 0.484 µM (input ligand: none).

Regarding “AGAGGAGGAGCAGGAUAUUCGACGGAGGACGUGGAAGAAGGGUUCAUGCGAUGACAUGAGGAUCACCCAUGUACCGCGCGUCGA [AK SSNG1-V2-15.1] (Eterna round: R96, puzzle: Same State NG 1)”, the “apparent KD of MS2 coat protein” value (input ligand: FMN 200 uM) was 0.143 µM, the “apparent KD of MS2 coat protein” value under setting [4] was 0.106 µM and the “apparent KD of MS2 coat protein” value (input ligand: none) came to 0.478 µM.
